The results in this text go back to PMC3873694.

In experiment [1] the target is adult muscle nicotinic acetylcholine receptor (α1β1εδ), mouse (mouse) (UniProt P04756).
Experiment [2] has as its target fetal muscle nicotinic acetylcholine receptor (α1β1γδ), mouse (mouse) (UniProt P04756).
The target is the same in experiment [3]. The source holds these as a separate data set.

Regarding “Fraction 4 of the tentacle venom extract (TVE) of the jellyfish Aurelia aurita”, the IC50 of inhibition of ACh-elicited currents, two-electrode voltage clamp on X. laevis oocytes expressing the receptor in experiment [1] was determined as 2280 µg/mL; in experiment [2], 1770 µg/mL. The substance also gave a percent block of ACh-elicited currents at 1.5, 3 and 4.5 μg total protein of fraction 4 (25%, 50%, 96%), voltage clamp on X. laevis oocytes in experiment [3] of 96%.
